Data as given in patent US20120282700A1.

What was measured:
[1] = molecular target: M13/HRP antibody; assay: depletion of M13/HRP antibody (0.45-9.0 µg/mL) from the supernatant by pSDLBA3b cells, TMB read-out, Langmuir linear regression
[2] = molecular target: Alexa Fluor 488 conjugated rabbit anti-mouse antibody (Invitrogen; A-11059); assay: flow cytometry, 2 µg Alexa Fluor 488 rabbit anti-mouse antibody on Sdlba3b-expressing L. lactis cells; control cells (pNZ8148) 2.26
[3] = molecular target: Alexa Fluor 488 conjugated rabbit anti-mouse antibody (Invitrogen; A-11059); assay: flow cytometry with Alexa Fluor 488 rabbit anti-mouse antibody after 30 min in simulated gastric juice (pepsin, pH 2.0 or 4.0), against incubation at pH 7.0

## Sdlba3b fusion protein (encoded by pSDLBA3b), immunoglobulin-binding B domain displayed on the surface of L. lactis (from UniProt P38507 212-269)
[1]
  maximum amount of adsorbed antibody (µg per 1×10^8 cells): 0.146
[2]
  mean fluorescence intensity: 151
[3]
  loss of fluorescence intensity: < 14%
